Reference: patent US20220135628A1 (OXFORD UNIVERSITY INNOVATION, published 2022)
Where two headings read alike, the source gives them in different places. No end group written: not given here.

T1: SpyTag002-MBP (also: fused to MBP, sequence and linker not given here)
T1 construct: not shown: construct pET28a SpyTag002-MBP, GenBank MF974389
T1 chain: VPTIVMVDAYKRYK

T2: SpyTag003 DA-MBP (also: fused to MBP, sequence and linker not given here)
T2 chain: RGVPHIVMVAAYKRYK

B1: SpyCatcher003-sfGFP (designed binder)
chain: VTTLSGLSGEQGPSGDMTTEEDSATHIKFSKRDEDGRELAGATMELRDSSGKTISTWISDGHVKDFYLYPGKYTFVETAAPDGYEVATPIEFTVNEDGQVTVDGEATEGDAHT
notes: also called SpyCatcher003 fused to the N-terminus of super-folder GFP; not shown: super-folder GFP (sfGFP) C-terminal of the catcher
B2: SpyCatcher003 (designed binder)
chain: B1 chain
notes: also called 003 Catcher

Tests used:
SpyTag003-MBP [1] = assay: SDS-PAGE with sfGFP fluorescence, pH 7.0, 25 C
Description: (§1) The sfGFP fusions were used to enable reactions to be carried out at concentrations as low as 10 nM. […] Percentage isopeptide product formation was calculated by dividing the intensity of the band for the covalent complex by the intensity of all the bands in the lane and multiplying by 100. […] Time-points were analysed during the linear portion of the reaction curve. […] Experiments were carried out in triplicate and the data represent the mean±1 standard deviation.

SpyTag002-MBP = target: T1, SpyTag002-MBP; assay: SDS-PAGE with sfGFP fluorescence, pH 7.0, 25 C
Description: as §1

SpyTag-MBP = target: T3, SpyTag-MBP; assay: SDS-PAGE with sfGFP fluorescence, pH 7.0, 25 C
T3 construct: not shown: construct pET28a-SpyTag-MBP, Addgene 35050

SpyTag003-MBP [2] = assay: SDS-PAGE with sfGFP fluorescence, pH 7.0, 25 C; remark: listed apart in the source
Description: as §1

SpyTag003 DA-MBP = target: T2, SpyTag003 DA-MBP; assay: isothermal titration calorimetry, 20 C, PBS pH 7.4, non-covalent complex
Description: Experiments were carried out using a Microcal PEAQ-ITC calorimeter (Malvern) at 20° C. in PBS pH 7.4. […] Analysis was carried out using a 1:1 binding model using MicroCal PEAQ-ITC Analysis software version 1.1.0.1262.

| Binder | Rate constant (second-order, isopeptide bond formation) (SpyTag003-MBP [1]) [M⁻¹ s⁻¹] | Rate constant (second-order, isopeptide bond formation) (SpyTag002-MBP) [M⁻¹ s⁻¹] | Rate constant (second-order, isopeptide bond formation) (SpyTag-MBP) [M⁻¹ s⁻¹] | Rate constant (second-order, isopeptide bond formation) (SpyTag003-MBP [2]) [M⁻¹ s⁻¹] | Kd (SpyTag003 DA-MBP) [nM] |
| --- | --- | --- | --- | --- | --- |
| B1 | 550000 | 83000 | 24000 | 550000 | – |
| B2 | – | – | – | – | < 10 |
